Experimental findings from patent US20080242590A1, “New Method 706” (ASTRAZENECA AB, priority 2007, published 2008) are described below.

Experiment [1] has as its target amyloid β peptide 1-40 (human) (human). Briefly: cell-based or functional assay.
Experiment [2] has as its target amyloid β peptide 1-42 (human) (human). Briefly: cell-based or functional assay.

Chain of amyloid β peptide 1-42 (human) (human) (peptide, as listed by the source): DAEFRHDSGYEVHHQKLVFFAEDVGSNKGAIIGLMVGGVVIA
Chain of amyloid β peptide 1-40 (human) (human) (peptide, as listed by the source): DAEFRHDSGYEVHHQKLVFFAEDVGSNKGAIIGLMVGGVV

B1: Fc-Neprilysin fusion protein (human IgG2 hinge and Fc domain fused N-terminally to the extracellular domain of human Neprilysin) (Fc fusion)
chain: ERKCCVECPPCPAPPVAGPSVFLFPPKPKDTLMISRTPEVTCVVVDVSHEDPEVQFNWYVDGVEVHNAKTKPREEQFNSTFRVVSVLTVVHQDWLNGKEYKCKVSNKGLPAPIEKTISKTKGQPREPQVYTLPPSREEMTKNQVSLTCLVKGFYPSDIAVEWESNGQPENNYKTTPPMLDSDGSFFLYSKLTVDKSRWQQGNVFSCSVMHEALHNHYTQKSLSLSPGKYDDGICKSSDCIKSAARLIQNMDATTEPCTDFFKYACGGWLKRNVIPETSSRYGNFDILRDELEVVLKDVLQEPKTEDIVAVQKAKALYRSCINESAIDSRGGEPLLKLLPDIYGWPVATENWEQKYGASWTAEKAIAQLNSKYGKKVLINLFVGTDDKNSVNHVIHIDQPRLGLPSRDYYECTGIYKEACTAYVDFMISVARLIRQEERLPIDENQLALEMNKVMELEKEIANATAKPEDRNDPMLLYNKMTLAQIQNNFSLEINGKPFSWLNFTNEIMSTVNISITNEEDVVVYAPEYLTKLKPILTKYSARDLQNLMSWRFIMDLVSSLSRTYKESRNAFRKALYGTTSETATWRRCANYVNGNMENAVGRLYVEAAFAGESKHVVEDLIAQIREVFIQTLDDLTWMDAETKKRAEEKALAIKERIGYPDDIVSNDNKLNNEYLELNYKEDEYFENIIQNLKFSQSKQLKKLREKVDKDEWISGAAVVNAFYSSGRNQIVFPAGILQPPFFSAQQSNSLNYGGIGMVIGHEITHGFDDNGRNFNKDGDLVDWWTQQSASNFKEQSQCMVYQYGNFSWDLAGGQHLNGINTLGENIADNGGLGQAYRAYQNYIKKNGEEKLLPGLDLNHKQLFFLNFAQVWCGTYRPEYAVNSIKTDVHSPGNFRIIGTLQNSAEFSEAFHCRKNSYMNPEKKCRVW
Regarding B1, in experiment [1], the % degradation of amyloid β 1-40 in APPswe-tg mouse plasma at highest concentration (100 µg/ml), 1 h room temperature, ELISA was 71%; the % degradation of amyloid β 1-40 in human plasma at highest concentration (100 µg/ml), 1 h room temperature, ELISA came to 66%; the Amyloid β 1-40 peptide degradation (remaining peptide by Gyrolab immunoassay), batch 1, 2.4 µg/ml, 300 nM peptide, 2.5 h at 37 °C in buffer came to 50%; the Amyloid β 1-40 peptide degradation (remaining peptide by Gyrolab immunoassay), batch 2, 2.4 µg/ml, 300 nM peptide, 2.5 h at 37 °C in buffer stood at 42%. In experiment [1], this molecule returned an EC50 of degradation of Aβ 1-40 in APPswe-tg mouse plasma of 470 nM and an EC50 of degradation of Aβ 1-40 in human plasma of 580 nM. In experiment [2], this molecule had a % degradation of Aβ 1-42 in APPswe-tg mouse plasma at highest concentration (100 µg/ml), 1 h room temperature, ELISA of 34%; a % degradation of Aβ 1-42 in human plasma at highest concentration (100 µg/ml), 1 h room temperature, ELISA of 28%; an EC50 of degradation of Aβ 1-42 in APPswe-tg mouse plasma of 1300 nM; an EC50 of degradation of Aβ 1-42 in human plasma of 250 nM.
